Values quoted from earlier work in PMC3273586 (International Journal of Pharmaceutics, 2011).

Conditions: solution stored for 20 h at room temperature; ref Dijkhuizen-Radersma et al., 2002

calcitonin
aggregation of solution on storage: early onset of aggregation
